Measured values as given in the supplement of paper PMC9112550, “Optimization of the antimicrobial peptide Bac7 by deep mutational scanning” (BMC Biology, 2022).

System: Escherichia coli TOP10
Test: shrunken log2 fold change of peptide-encoding DNA abundance (4.5 h post-induction vs induction); higher = less antimicrobial activity (less host growth inhibition)
Conditions: time post-induction: 4.5 h; library: site-saturation at positions 5, 18, 19, 20
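Also: peptides expressed intracellularly from a pBAD plasmid library in pooled LB shake-flask culture, induced with 0.3% L-arabinose, DNA abundance read by NGS, three biological replicates, DESeq2 with apeglm shrinkage.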

## RRIRQRPPRLPRPRPRPGVFPRP
  shrunken log2 fold change: 0.0582

## RRIRCRPPRLPRPRPRPIAAPRP
  shrunken log2 fold change: 0.549

## RRIRSRPPRLPRPRPRPFQDPRP
  shrunken log2 fold change: -0.01

## RRIRTRPPRLPRPRPRPKMTPRP
  shrunken log2 fold change: 0.214

## RRIRWRPPRLPRPRPRPPNKPRP
  shrunken log2 fold change: 0.206

## RRIRQRPPRLPRPRPRPSLMPRP
  shrunken log2 fold change: -0.112

## RRIRFRPPRLPRPRPRPKGHPRP
  shrunken log2 fold change: 0.0587

## RRIRCRPPRLPRPRPRPLKMPRP
  shrunken log2 fold change: -0.365

## RRIRARPPRLPRPRPRPYSHPRP
  shrunken log2 fold change: -0.171

## RRIRQRPPRLPRPRPRPYQVPRP
  shrunken log2 fold change: -0.0417

## RRIRLRPPRLPRPRPRPGQYPRP
  shrunken log2 fold change: -0.0693

## RRIRPRPPRLPRPRPRPTALPRP
  shrunken log2 fold change: 0.0271

## RRIRVRPPRLPRPRPRPWRIPRP
  shrunken log2 fold change: -0.00931

## RRIRCRPPRLPRPRPRPPCTPRP
  shrunken log2 fold change: -0.0939

## RRIRDRPPRLPRPRPRPADSPRP
  shrunken log2 fold change: 0.157

## RRIRQRPPRLPRPRPRPIRVPRP
  shrunken log2 fold change: -0.00674

## RRIRCRPPRLPRPRPRPPHPPRP
  shrunken log2 fold change: 0.339

## RRIRCRPPRLPRPRPRPYTLPRP
  shrunken log2 fold change: -1.07

## RRIRFRPPRLPRPRPRPYIPPRP
  shrunken log2 fold change: -1.8

## RRIRERPPRLPRPRPRPTAHPRP
  shrunken log2 fold change: 0.0481

## RRIRYRPPRLPRPRPRPVSIPRP
  shrunken log2 fold change: -0.821

## RRIRVRPPRLPRPRPRPQHRPRP
  shrunken log2 fold change: 0.0105

## RRIRVRPPRLPRPRPRPKEYPRP
  shrunken log2 fold change: -0.282

## RRIRNRPPRLPRPRPRPGMNPRP
  shrunken log2 fold change: -0.02

## RRIRCRPPRLPRPRPRPCQSPRP
  shrunken log2 fold change: 0.00299

## RRIRLRPPRLPRPRPRPKYTPRP
  shrunken log2 fold change: -0.61

## RRIRLRPPRLPRPRPRPPEYPRP
  shrunken log2 fold change: -0.26

## RRIRQRPPRLPRPRPRPKWSPRP
  shrunken log2 fold change: 0.0364

## RRIRIRPPRLPRPRPRPKDEPRP
  shrunken log2 fold change: -0.00382

## RRIRQRPPRLPRPRPRPWNYPRP
  shrunken log2 fold change: -0.201

## RRIRMRPPRLPRPRPRPRLGPRP
  shrunken log2 fold change: 0.644

## RRIRRRPPRLPRPRPRPMHMPRP
  shrunken log2 fold change: 0.121

## RRIRKRPPRLPRPRPRPPHLPRP
  shrunken log2 fold change: 0.332

## RRIRPRPPRLPRPRPRPRKPPRP
  shrunken log2 fold change: -0.0217

## RRIRGRPPRLPRPRPRPGLMPRP
  shrunken log2 fold change: 0.799

## RRIRTRPPRLPRPRPRPSWGPRP
  shrunken log2 fold change: -0.179

## RRIRVRPPRLPRPRPRPTAVPRP
  shrunken log2 fold change: 0.327

## RRIRRRPPRLPRPRPRPTARPRP
  shrunken log2 fold change: 0.494

## RRIRQRPPRLPRPRPRPHHQPRP
  shrunken log2 fold change: 0.18

## RRIRKRPPRLPRPRPRPDGAPRP
  shrunken log2 fold change: 0.632

## RRIRMRPPRLPRPRPRPFLYPRP
  shrunken log2 fold change: -0.124

## RRIRGRPPRLPRPRPRPQHVPRP
  shrunken log2 fold change: -0.12

## RRIRFRPPRLPRPRPRPWYAPRP
  shrunken log2 fold change: -0.791

## RRIRKRPPRLPRPRPRPIGTPRP
  shrunken log2 fold change: 0.105

## RRIRTRPPRLPRPRPRPNEYPRP
  shrunken log2 fold change: -0.22

## RRIRGRPPRLPRPRPRPWNSPRP
  shrunken log2 fold change: -0.00154

## RRIRDRPPRLPRPRPRPFLDPRP
  shrunken log2 fold change: 0.431

## RRIRGRPPRLPRPRPRPKRYPRP
  shrunken log2 fold change: 0.253

## RRIRLRPPRLPRPRPRPWWIPRP
  shrunken log2 fold change: -0.107

## RRIRQRPPRLPRPRPRPINEPRP
  shrunken log2 fold change: 0.0162

## RRIRHRPPRLPRPRPRPAKFPRP
  shrunken log2 fold change: -0.139

## RRIRWRPPRLPRPRPRPSQDPRP
  shrunken log2 fold change: 0.22

## RRIRPRPPRLPRPRPRPMCWPRP
  shrunken log2 fold change: 0.156

## RRIRYRPPRLPRPRPRPVVYPRP
  shrunken log2 fold change: 0.0874

## RRIRWRPPRLPRPRPRPRCRPRP
  shrunken log2 fold change: 0.371

## RRIRIRPPRLPRPRPRPNLRPRP
  shrunken log2 fold change: -0.117

## RRIRTRPPRLPRPRPRPPGLPRP
  shrunken log2 fold change: 1.11

## RRIRSRPPRLPRPRPRPRGDPRP
  shrunken log2 fold change: 0.477

## RRIRMRPPRLPRPRPRPFDYPRP
  shrunken log2 fold change: -0.16

## RRIRYRPPRLPRPRPRPCNYPRP
  shrunken log2 fold change: -0.87

## RRIRPRPPRLPRPRPRPEVQPRP
  shrunken log2 fold change: 0.0715

## RRIRERPPRLPRPRPRPHRGPRP
  shrunken log2 fold change: 0.0526

## RRIRNRPPRLPRPRPRPGPEPRP
  shrunken log2 fold change: 0.684

## RRIRHRPPRLPRPRPRPVARPRP
  shrunken log2 fold change: 0.227

## RRIRERPPRLPRPRPRPPGRPRP
  shrunken log2 fold change: 0.146

## RRIRMRPPRLPRPRPRPYTVPRP
  shrunken log2 fold change: 0.0221

## RRIRQRPPRLPRPRPRPRDVPRP
  shrunken log2 fold change: -0.0705

## RRIRTRPPRLPRPRPRPEIYPRP
  shrunken log2 fold change: -0.329

## RRIRARPPRLPRPRPRPCTVPRP
  shrunken log2 fold change: -0.26

## RRIRKRPPRLPRPRPRPRAPPRP
  shrunken log2 fold change: 0.538

## RRIRQRPPRLPRPRPRPSGGPRP
  shrunken log2 fold change: 0.0203

## RRIRKRPPRLPRPRPRPVAEPRP
  shrunken log2 fold change: 0.973

## RRIRVRPPRLPRPRPRPKRSPRP
  shrunken log2 fold change: 0.112

## RRIRFRPPRLPRPRPRPAVDPRP
  shrunken log2 fold change: 0.43

## RRIRCRPPRLPRPRPRPIEHPRP
  shrunken log2 fold change: -0.00454

## RRIRWRPPRLPRPRPRPCQDPRP
  shrunken log2 fold change: -0.0575

## RRIRGRPPRLPRPRPRPPRSPRP
  shrunken log2 fold change: 1.19

## RRIRGRPPRLPRPRPRPLTDPRP
  shrunken log2 fold change: 0.284

## RRIRQRPPRLPRPRPRPYRPPRP
  shrunken log2 fold change: -0.103

## RRIRLRPPRLPRPRPRPSHAPRP
  shrunken log2 fold change: 0.212

## RRIRVRPPRLPRPRPRPKHRPRP
  shrunken log2 fold change: 0.356

## RRIRIRPPRLPRPRPRPMWSPRP
  shrunken log2 fold change: 0.045

## RRIRHRPPRLPRPRPRPIINPRP
  shrunken log2 fold change: -0.324

## RRIRGRPPRLPRPRPRPHEEPRP
  shrunken log2 fold change: 0.383

## RRIRTRPPRLPRPRPRPVKEPRP
  shrunken log2 fold change: -0.0988

## RRIRHRPPRLPRPRPRPRYSPRP
  shrunken log2 fold change: -0.234

## RRIRRRPPRLPRPRPRPIREPRP
  shrunken log2 fold change: 0.208

## RRIRGRPPRLPRPRPRPDVYPRP
  shrunken log2 fold change: -0.0497

## RRIRKRPPRLPRPRPRPDMDPRP
  shrunken log2 fold change: 0.0224

## RRIRIRPPRLPRPRPRPHEYPRP
  shrunken log2 fold change: 0.0332

## RRIRCRPPRLPRPRPRPTFRPRP
  shrunken log2 fold change: 0.0981

## RRIRMRPPRLPRPRPRPHMSPRP
  shrunken log2 fold change: -0.123

## RRIRERPPRLPRPRPRPLHEPRP
  shrunken log2 fold change: -0.65

## RRIRCRPPRLPRPRPRPWNYPRP
  shrunken log2 fold change: -0.282

## RRIRFRPPRLPRPRPRPHYCPRP
  shrunken log2 fold change: -0.197

## RRIRRRPPRLPRPRPRPDPYPRP
  shrunken log2 fold change: 0.175

## RRIRHRPPRLPRPRPRPGNMPRP
  shrunken log2 fold change: -0.121

## RRIRFRPPRLPRPRPRPIRFPRP
  shrunken log2 fold change: -0.233

## RRIRLRPPRLPRPRPRPSVDPRP
  shrunken log2 fold change: -0.462

## RRIRDRPPRLPRPRPRPARTPRP
  shrunken log2 fold change: 0.364

## RRIRIRPPRLPRPRPRPWFYPRP
  shrunken log2 fold change: -0.161

## RRIRNRPPRLPRPRPRPCLPPRP
  shrunken log2 fold change: -0.217

## RRIRKRPPRLPRPRPRPDWGPRP
  shrunken log2 fold change: 2.83

## RRIRFRPPRLPRPRPRPNDTPRP
  shrunken log2 fold change: -0.179

## RRIRSRPPRLPRPRPRPRMHPRP
  shrunken log2 fold change: 0.173

## RRIRFRPPRLPRPRPRPDASPRP
  shrunken log2 fold change: 0.146

## RRIRDRPPRLPRPRPRPCKMPRP
  shrunken log2 fold change: -0.0957

## RRIRGRPPRLPRPRPRPECEPRP
  shrunken log2 fold change: 1.88

## RRIRFRPPRLPRPRPRPALWPRP
  shrunken log2 fold change: 0.625

## RRIRHRPPRLPRPRPRPCTTPRP
  shrunken log2 fold change: -1.7

## RRIRPRPPRLPRPRPRPHMEPRP
  shrunken log2 fold change: -0.0417

## RRIRTRPPRLPRPRPRPETLPRP
  shrunken log2 fold change: 0.0577

## RRIRPRPPRLPRPRPRPWGQPRP
  shrunken log2 fold change: 0.0568

## RRIRWRPPRLPRPRPRPKPGPRP
  shrunken log2 fold change: 0.34

## RRIRVRPPRLPRPRPRPVSSPRP
  shrunken log2 fold change: 0.105

## RRIRFRPPRLPRPRPRPAQCPRP
  shrunken log2 fold change: 0.0148

## RRIRHRPPRLPRPRPRPGFWPRP
  shrunken log2 fold change: 0.0409

## RRIRERPPRLPRPRPRPDKQPRP
  shrunken log2 fold change: 0.0325

## RRIRHRPPRLPRPRPRPKHFPRP
  shrunken log2 fold change: 0.451

## RRIRTRPPRLPRPRPRPIRMPRP
  shrunken log2 fold change: -0.441

## RRIRTRPPRLPRPRPRPKDLPRP
  shrunken log2 fold change: 0.0246

## RRIRYRPPRLPRPRPRPDMNPRP
  shrunken log2 fold change: 0.00911

## RRIRNRPPRLPRPRPRPWATPRP
  shrunken log2 fold change: -0.188

## RRIRIRPPRLPRPRPRPVNGPRP
  shrunken log2 fold change: -0.0532

## RRIRSRPPRLPRPRPRPVPYPRP
  shrunken log2 fold change: -0.248

## RRIRWRPPRLPRPRPRPCFDPRP
  shrunken log2 fold change: 0.172

## RRIRQRPPRLPRPRPRPLHRPRP
  shrunken log2 fold change: -0.11

## RRIRKRPPRLPRPRPRPKAGPRP
  shrunken log2 fold change: 0.504

## RRIRRRPPRLPRPRPRPDCAPRP
  shrunken log2 fold change: 0.345

## RRIRPRPPRLPRPRPRPELGPRP
  shrunken log2 fold change: 0.24

## RRIRSRPPRLPRPRPRPEKRPRP
  shrunken log2 fold change: -0.0813

## RRIRERPPRLPRPRPRPWDWPRP
  shrunken log2 fold change: 0.0223

## RRIRVRPPRLPRPRPRPCEEPRP
  shrunken log2 fold change: 0.24

## RRIRARPPRLPRPRPRPLANPRP
  shrunken log2 fold change: 0.255

## RRIRRRPPRLPRPRPRPPLHPRP
  shrunken log2 fold change: 0.695

## RRIRGRPPRLPRPRPRPQAIPRP
  shrunken log2 fold change: 0.58

## RRIRMRPPRLPRPRPRPSVQPRP
  shrunken log2 fold change: 0.296

## RRIRHRPPRLPRPRPRPENFPRP
  shrunken log2 fold change: -0.0249

## RRIRKRPPRLPRPRPRPSTLPRP
  shrunken log2 fold change: 0.252

## RRIRVRPPRLPRPRPRPTGLPRP
  shrunken log2 fold change: 0.000711

## RRIRVRPPRLPRPRPRPVQHPRP
  shrunken log2 fold change: -0.0336

## RRIRFRPPRLPRPRPRPDIEPRP
  shrunken log2 fold change: 0.0974

## RRIRIRPPRLPRPRPRPSSAPRP
  shrunken log2 fold change: -0.666

## RRIRQRPPRLPRPRPRPWLQPRP
  shrunken log2 fold change: 0.188

## RRIRRRPPRLPRPRPRPIAPPRP
  shrunken log2 fold change: 0.702

## RRIRHRPPRLPRPRPRPQYYPRP
  shrunken log2 fold change: -1.76

## RRIRRRPPRLPRPRPRPIEMPRP
  shrunken log2 fold change: 0.0754

## RRIRFRPPRLPRPRPRPAFLPRP
  shrunken log2 fold change: -0.17

## RRIRGRPPRLPRPRPRPKQNPRP
  shrunken log2 fold change: 0.853

## RRIRPRPPRLPRPRPRPFPKPRP
  shrunken log2 fold change: 0.166
